These results are taken from PMC2289905.

In assay [1] the target is radioiodinated mature transforming growth factor beta 1 (UniProt P01137). Kind of assay: cross-linking.
Assay [2] concerns the target beta 1-LAP deletion mutant L40-50 (simian). Put plainly: nonreducing SDS-PAGE with immunoblot. (In general: A western blot detects proteins with antibodies after separation by electrophoresis.)
Assay [3] has as its target beta 1-LAP deletion mutant L50-81 (simian). Kind of assay: nonreducing SDS-PAGE with immunoblot.
Assay [4] concerns the target beta 1-LAP deletion mutant L50-85 (simian). Put plainly: nonreducing SDS-PAGE with immunoblot.
Assay [5] deals with beta 1-LAP deletion mutant L85-110 (simian). Put plainly: nonreducing SDS-PAGE with immunoblot.
Assay [6] addresses mature TGFbeta1 secreted by COS-1 cells transfected with wild-type pre-pro-TGFbeta1 (simian). Put plainly: nonreducing SDS-PAGE with immunoblot.

The stoichiometry N is the number of molecules, sites or subunits per partner or assembly.

radioiodinated mature transforming growth factor beta 1, sequence (P01137 279-390): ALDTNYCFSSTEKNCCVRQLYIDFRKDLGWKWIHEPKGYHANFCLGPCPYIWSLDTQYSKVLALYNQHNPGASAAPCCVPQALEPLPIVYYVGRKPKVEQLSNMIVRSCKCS
beta 1-latency-associated peptide (pro domain of TGFbeta1 expressed independently), wild type (domain or fragment), sequence (P09533 30-390): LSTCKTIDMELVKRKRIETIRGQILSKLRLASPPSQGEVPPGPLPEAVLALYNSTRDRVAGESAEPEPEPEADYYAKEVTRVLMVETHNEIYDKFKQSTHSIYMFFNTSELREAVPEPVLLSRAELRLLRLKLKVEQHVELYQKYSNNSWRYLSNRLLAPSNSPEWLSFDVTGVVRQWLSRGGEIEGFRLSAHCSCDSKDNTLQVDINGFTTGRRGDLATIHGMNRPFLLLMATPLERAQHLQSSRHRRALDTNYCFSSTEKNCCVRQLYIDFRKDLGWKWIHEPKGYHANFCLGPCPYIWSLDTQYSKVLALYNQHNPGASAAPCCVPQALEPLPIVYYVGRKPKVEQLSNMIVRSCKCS

Take “beta 1-LAP deletion mutant L40-50 (domain or fragment)”: the cross-linking (% of wild-type) (% of wild-type) in assay [1] was found to be 10. For the same substance, the stoichiometry N in assay [2] came out at 2.
With “beta 1-LAP deletion mutant L50-81 (domain or fragment)”, the stoichiometry N in assay [3] is 2.
“beta 1-LAP deletion mutant L50-85 (domain or fragment)”: the stoichiometry N in assay [4] stood at 2.
For the substance “beta 1-LAP deletion mutant L85-110 (domain or fragment)”, the cross-linking (% of wild-type) (% of wild-type) in assay [1] is 12. Moreover, the stoichiometry N in assay [5] came out at 2.
In assay [1], “beta 1-latency-associated peptide (pro domain of TGFbeta1 expressed independently), wild type (domain or fragment)” had a cross-linking (% of wild-type) (% of wild-type) of 100.
Consider “mature TGFbeta1 secreted by COS-1 cells transfected with wild-type pre-pro-TGFbeta1 (ligand)”, for which, in assay [6], the stoichiometry N was found to be 2.
